Source: article PMC2857461 (The EMBO Journal, 2010)

Key:
[1] = target: the molecule itself; test: AUC
[2] = target: the molecule itself; test: cross-linking

B1: His‐CT2 (domain or fragment, human, UniProt Q13563 680-968, looked up)
chain: INDTYSEVKSDLAQQKAEMELSDLIRKGYHKALVKLKLKKNTVDDISESLRQGGGKLNFDELRQDLKGKGHTDAEIEAIFTKYDQDGDQELTEHEHQQMRDDLEKEREDLDLDHSSLPRPMSSRSFPRSLDDSEEDDDEDSGHSSRRRGSISSGVSYEEFQVLVRRVDRMEHSIGSIVSKIDAVIVKLEIMERAKLKRREVLGRLLDGVAEDERLGRDSEIHREQMERLVREELERWESDDAASQISHGLGTPVGLNGQPRPRSSRPSSSQSTEGMEGAGGNGSSNVHV
- stoichiometry N [1]: 2
- stoichiometry N [2]: 4
